Legend:
[1] = biological target: T1, human epidermal growth factor receptor (human, UniProt P00533 25-1210); assay: RRA, 125I-EGF competition on human placenta microsomal fraction
T1 construct: whole, on cells; also called EGF-R; EGF receptor

[2] = biological target: T1, human epidermal growth factor receptor; assay: RRA, concentrated supernatants of transfected NSO cells

binding result [1]	binding result [2]	Binder
no binding	–	first version of humanized R3 antibody (R3-huVH(a) with R3-huVK) (antibody, human IgG1, V domains shown, R3 CDRs grafted on human Eu (VH) and REI (VK) frameworks; human IgG1 / kappa constant regions; also called humanized (1) R3; version 1) VH: QVQLQQSGAEVKKPGSSVKVSCKASGYTFTNYYIYWVRQAPGQGLEWIGGINPTSGGSNFNEKFKTRVTITVDESTNTAYMELSSLRSEDTAFYFCARQGLWFDSDGRGFDFWGQGSTVTVSS VL: DIQMTQSPSSLSASVGDRVTITCRSSQNIVHSNGNTYLDWYQQTPGKAPKLLIYKVSNRFSGVPSRFSGSGSGTDFTFTISSLQPEDIATYYCFQYSHVPWTFGQGTKLQITR
–	no binding	hybrid humanized R3VH/murine R3VK (antibody, V domains shown, Human gamma-1 and kappa constant regions; tested as concentrated supernatant of transfected NSO cells; The hybrid was made before the further VH versions, so its humanized VH is read as the first version) VH: QVQLQQSGAEVKKPGSSVKVSCKASGYTFTNYYIYWVRQAPGQGLEWIGGINPTSGGSNFNEKFKTRVTITVDESTNTAYMELSSLRSEDTAFYFCARQGLWFDSDGRGFDFWGQGSTVTVSS VL: DVLMTQIPLSLPVSLGDGASISCRSSQNIVHSNGNTYLDWYLQKPGQSPNLLIYKVSNRFSGVPDRFRGSGSGTDFTLKISRVEAEDLGVYYCFQYSHVPWTFGGGTKLEIK
no binding	–	reshaped R3VH-K66A67 with huVKR3 (antibody, V domains shown, Human IgG1 / kappa; also called 66 and 67 changes) VH: QVQLQQSGAEVKKPGSSVKVSCKASGYTFTNYYIYWVRQAPGQGLEWIGGINPTSGGSNFNEKFKTKATITVDESTNTAYMELSSLRSEDTAFYFCARQGLWFDSDGRGFDFWGQGSTVTVSS VL: DIQMTQSPSSLSASVGDRVTITCRSSQNIVHSNGNTYLDWYQQTPGKAPKLLIYKVSNRFSGVPSRFSGSGSGTDFTFTISSLQPEDIATYYCFQYSHVPWTFGQGTKLQIT

From US20020065398A1 (CENTRO DE INMUNOLOGIA MOLECULAR, published 2002)
